Test results from US20260125477A1 (BEIJING MABWORKS BIOTECH, published 2026).

Key:
[1] = target: T1, recombinant human CD80 protein (human B7-1/CD80 protein, with His tag) (human, UniProt P33681 35-242); assay: SPR (Biacore T200), antibody captured on Protein A chip
T1 construct: Bought protein
T1 sequence (looked up): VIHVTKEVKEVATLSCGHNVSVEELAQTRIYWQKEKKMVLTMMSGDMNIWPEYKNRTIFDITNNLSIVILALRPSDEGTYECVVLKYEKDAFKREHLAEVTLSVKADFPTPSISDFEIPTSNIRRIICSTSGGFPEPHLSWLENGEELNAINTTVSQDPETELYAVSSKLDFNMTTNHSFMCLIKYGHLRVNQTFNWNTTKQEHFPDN
Experimental: (§1) The anti-human B7-H3 antibodies were tested for their binding capability to B7 family proteins by SPR using Biacore T200 biosensor (Biacore, US) provided with a pre-fixed Protein A sensor chip.
(§2) The dissociation was monitored for 600 sec. The data was analyzed using Biacore 8k evaluation software version 3.0, to obtain the binding responses, and the protein concentration-binding response curves were plotted, to determine the cross-reaction of the anti-human B7-H3 antibodies to the B7 family proteins.

[2] = target: T2, human PD-L1/B7-H1 protein, with His tag (human, UniProt Q9NZQ7 19-238); assay: as above
T2 construct: Bought protein
Experimental: as §1, §2

[3] = target: T3, human B7-H5/Gi24/VISTA protein, with His tag (MALS verified) (human, UniProt Q9H7M9 33-194); assay: as above
T3 construct: Bought protein
T3 sequence (looked up): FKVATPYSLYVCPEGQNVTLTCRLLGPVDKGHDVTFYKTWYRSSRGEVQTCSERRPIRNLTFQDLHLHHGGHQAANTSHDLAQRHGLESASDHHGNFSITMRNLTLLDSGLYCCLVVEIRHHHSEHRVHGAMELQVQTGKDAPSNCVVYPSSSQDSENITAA
Experimental: as §1, §2

[4] = target: T4, human B7-H7/HHLA2 protein, with His tag (MALS verified) (human, UniProt Q9UM44 23-344, limits assumed); assay: as above
T4 construct: Bought protein
T4 sequence (looked up): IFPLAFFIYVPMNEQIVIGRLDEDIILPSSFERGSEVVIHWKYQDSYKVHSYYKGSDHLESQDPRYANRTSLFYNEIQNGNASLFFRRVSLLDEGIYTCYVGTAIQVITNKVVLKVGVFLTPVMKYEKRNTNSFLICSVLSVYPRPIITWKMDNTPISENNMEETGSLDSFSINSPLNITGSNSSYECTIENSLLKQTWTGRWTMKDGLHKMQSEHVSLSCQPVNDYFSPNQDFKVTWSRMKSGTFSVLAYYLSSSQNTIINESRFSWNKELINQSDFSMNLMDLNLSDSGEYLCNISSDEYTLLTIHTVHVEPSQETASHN
Experimental: as §1, §2

[5] = target: T5, recombinant human B7-H3 (4Ig) protein, with His tag (human, UniProt Q5ZPR3 29-461, limits assumed); assay: SPR (Biacore T200), antibody captured on Protein A chip, response at 200 nM antigen
T5 construct: Bought protein; also called human B7-H3 (4Ig)/B7-H3b protein
T5 sequence (looked up): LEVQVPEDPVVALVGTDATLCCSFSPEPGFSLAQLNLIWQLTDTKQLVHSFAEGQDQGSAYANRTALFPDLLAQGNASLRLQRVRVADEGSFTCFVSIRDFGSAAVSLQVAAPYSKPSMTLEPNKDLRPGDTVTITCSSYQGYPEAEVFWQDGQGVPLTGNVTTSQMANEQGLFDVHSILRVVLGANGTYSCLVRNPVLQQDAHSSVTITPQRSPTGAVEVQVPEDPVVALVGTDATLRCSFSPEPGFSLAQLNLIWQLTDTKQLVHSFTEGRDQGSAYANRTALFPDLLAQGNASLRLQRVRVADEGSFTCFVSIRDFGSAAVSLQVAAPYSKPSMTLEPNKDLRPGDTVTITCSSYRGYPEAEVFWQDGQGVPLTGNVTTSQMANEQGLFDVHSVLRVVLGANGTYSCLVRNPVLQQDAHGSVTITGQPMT
Experimental: as §1, §2

[6] = target: T5, recombinant human B7-H3 (4Ig) protein, …; assay: SPR (Biacore T200), antibody captured on Protein A chip, His-tagged antigen injected
Experimental: (§3) The fully human anti-human B7-H3 antibodies were tested for their binding affinity to human B7-H3 (4Ig), human B7-H3 (2Ig), monkey B7-H3 (monkey B7-H3/CD276 protein, with His tag, Cat #: B73-C52Ha, ACROBiosystems) and mouse B7-H3 protein (mouse B7-H3/CD276 protein, with His tag, Cat #: B73-M52H4, ACROBiosystems) by surface plasmon resonance (SPR) using Biacore T200 biosensor (Biacore, US) provided with a pre-fixed Protein A sensor chip. Briefly, the anti-human B7-H3 antibodies (1 μg/mL) were injected to the Biacore T200 biosensor at 10 μL/min for 20 sec, to achieve the desired protein density (100±30 RU).
(§4) The data as generated was analyzed using Biacore Insight V2.0.1 5.12933 with the one-to-one Langmuir binding model. The association rate (kₒₙ) and dissociation rate (koff) were obtained at the same time. The affinity was calculated as the quotient of the two kinetic rate constants (KD=koff/kₒₙ).

[7] = target: T6, recombinant human B7-H3 (2Ig) protein, with His tag (human, UniProt Q5ZPR3-2 29-245, limits assumed); assay: as above
T6 construct: Bought protein; also called human B7-H3/CD276 protein
T6 sequence (looked up): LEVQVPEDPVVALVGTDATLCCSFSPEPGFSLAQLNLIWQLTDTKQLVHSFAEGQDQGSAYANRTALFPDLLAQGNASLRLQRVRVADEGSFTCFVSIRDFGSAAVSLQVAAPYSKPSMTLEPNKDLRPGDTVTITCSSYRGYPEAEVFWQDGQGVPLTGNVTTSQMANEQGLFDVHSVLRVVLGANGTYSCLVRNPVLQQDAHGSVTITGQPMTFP
Experimental: as §3, §4

[8] = target: T7, monkey B7-H3/CD276 protein, with His tag (monkey); assay: as above
T7 construct: Bought protein
Experimental: as §3, §4

T2 sequence (Q9NZQ7 19-238 limits assumed): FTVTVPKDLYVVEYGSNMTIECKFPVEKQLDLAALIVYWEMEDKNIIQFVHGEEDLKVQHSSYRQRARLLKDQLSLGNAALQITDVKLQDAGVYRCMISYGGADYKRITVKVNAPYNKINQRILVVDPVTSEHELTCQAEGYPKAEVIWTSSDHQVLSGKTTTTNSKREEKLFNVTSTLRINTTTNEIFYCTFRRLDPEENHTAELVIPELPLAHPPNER

Row | Binder | binding result [1] | binding result [2] | binding result [3] | binding result [4] | Response (RU) [5] | Kd [6] | koff [6] | kon [6] | Kd [7] | koff [7] | kon [7] | Kd [8] | koff [8] | kon [8]
1 | 10F5 (antibody, human IgG1, kappa, V domains shown, also called Ab10F5) VH: QVQLVQSGAEVKKPGSSVKVSCKASGGTFSSQAISWVRQAPGQGLEWMGRIIPMLGIGDYAQSFQGRVTITADKSTSTAYLEVSSLGSEDTAVYYCAREGIAALGTNYYYGMDVWGQGTAVTVSS VL: EIVMTQSPSSVSASVGDRVTITCRASQGISRWLAWYQQKPGKAPKLLIYVASSLQSGVPSRFSGSGSGTDFTLTISSLQPEDFATYYCQQANSFPFTFGPGTKVDIRR | no binding (tested: 200 nM) | no binding (tested: 200 nM) | no binding (tested: 200 nM) | no binding (tested: 200 nM) | 32.5 RU | 1.01 nM | 0.00011 s⁻¹ | 109000 M⁻¹ s⁻¹ | 10.4 nM | 0.000422 s⁻¹ | 40500 M⁻¹ s⁻¹ |  |  | 
2 | Enoblituzumab (antibody, human IgG1, kappa, V domains shown, Humanized anti-B7-H3 antibody of MacroGenics with optimised Fc, used as the positive control; also called AbEno; enoblituzumab-IgG1-Mut) VH: EVQLVESGGGLVQPGGSLRLSCAASGFTFSSFGMHWVRQAPGKGLEWVAYISSDSSAIYYADTVKGRFTISRDNAKNSLYLQMNSLRDEDTAVYYCGRGRENIYYGSRLDYWGQGTTVTVSS VL: DIQLTQSPSFLSASVGDRVTITCKASQNVDTNVAWYQQKPGKAPKALIYSASYRYSGVPSRFSGSGSGTDFTLTISSLQPEDFATYYCQQYNNYPFTFGQGTKLEIKR |  |  |  |  | 25.7 RU | 1.11 nM | 0.000239 s⁻¹ | 216000 M⁻¹ s⁻¹ | 275 nM | 0.0203 s⁻¹ | 73700 M⁻¹ s⁻¹ | 0.966 nM | 0.000223 s⁻¹ | 231000 M⁻¹ s⁻¹
3 | 6B5 (antibody, human IgG1, kappa, V domains shown, also called 6B5-WT; Ab6B5) VH: QVQLVESGPGLVKPSQTLSLTCTVSDGSISSGGYYWSWIRQHPGKGLEWIGYIYYSGGTYYSPSLKSRVTISVDTSKNQFSLKLTSVTAADTAVYYCARRAGYSSSFDSWGQGILVTVSS VL: EIVLTQSPLSLPVTPGEPASISCRSSQSLLYSNGYTYLDWYLQKPGQSPQFLIYLGFNRASGVPDRFSGSGSGTDFTLKISRVEAEDVGVYYCMQGLQTPYTFGQGTKLEIKR |  |  |  |  | 34.8 RU | 1.26 nM | 0.00031 s⁻¹ | 247000 M⁻¹ s⁻¹ | 51.5 nM | 0.00653 s⁻¹ | 127000 M⁻¹ s⁻¹ | 1.14 nM | 0.000295 s⁻¹ | 258000 M⁻¹ s⁻¹
4 | 10D7 (antibody, human IgG1, kappa, V domains shown, also called 10D7-WT; Ab10D7) VH: QVQLVQSGPGLVKPSETLSLTCTVSGGSISRSSYYWGWIRQPPGKGLEWIGNIFYAGSTYYNPSLKSRVTISVDTSKNQFSLKLSSVTAADTAVYYCARRITGTTGWFDPWGQGTLVTVSS VL: DIQLTQSPSSLSASVGDRVTITCRASQGIRNDLGWYQQKPGKAPKLLIYAASTLQSGVPSRFSGSGSGTDFTLTISSLQPEDFATYYCLQDYNYPRTFGQGTKVEIKR | no binding (tested: 200 nM) | no binding (tested: 200 nM) | no binding (tested: 200 nM) | no binding (tested: 200 nM) | 41.9 RU | 1.11 nM | 0.000291 s⁻¹ | 263000 M⁻¹ s⁻¹ | 386 nM | 0.0588 s⁻¹ | 152000 M⁻¹ s⁻¹ | 49.5 nM | 0.0167 s⁻¹ | 337000 M⁻¹ s⁻¹
